# According to patent US12006344 (Novo Nordisk, dated 2024):
# Where a chain is given by its changes, count along the chain named. Numbers in names are those of the source.
# T1: human MIC-1 receptor (hGFRAL, GDNF family receptor alpha like) (human, UniProt Q6UXV0 19-394)
# T1 sequence (looked up): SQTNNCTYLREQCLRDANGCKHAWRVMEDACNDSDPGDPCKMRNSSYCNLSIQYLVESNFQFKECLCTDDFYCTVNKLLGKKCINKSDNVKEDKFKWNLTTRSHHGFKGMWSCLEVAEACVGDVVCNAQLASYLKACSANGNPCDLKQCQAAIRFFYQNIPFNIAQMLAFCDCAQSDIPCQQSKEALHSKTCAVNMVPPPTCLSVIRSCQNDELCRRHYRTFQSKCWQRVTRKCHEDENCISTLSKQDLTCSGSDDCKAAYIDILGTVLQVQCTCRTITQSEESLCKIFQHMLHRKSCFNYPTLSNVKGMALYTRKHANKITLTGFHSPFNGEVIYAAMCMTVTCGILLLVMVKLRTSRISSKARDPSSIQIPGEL
# B1: AAPEDEETPEQE-MIC-1-Δ1-3 (ligand)
# chain: AAPEDEETPEQEGDHCPLGPGRCCRLHTVRASLEDLGWADWVLSPREVQVTMCIGACPSQFRAANMHAQIKTSLHRLKPDTVPAPCCVPASYNPMVLIQKTDTGVSLQTYDDLLAKDCHCI
# B2: AAPDEGTEEETEGSGSGSGSGS-MIC-1-Δ1-3 (ligand)
# chain: AAPDEGTEEETEGSGSGSGSGSGDHCPLGPGRCCRLHTVRASLEDLGWADWVLSPREVQVTMCIGACPSQFRAANMHAQIKTSLHRLKPDTVPAPCCVPASYNPMVLIQKTDTGVSLQTYDDLLAKDCHCI
# B3: …-MIC-1-Δ1-3 (ligand)
# chain: SEPATSGSETPGTSTEPSEGSAPGGDHCPLGPGRCCRLHTVRASLEDLGWADWVLSPREVQVTMCIGACPSQFRAANMHAQIKTSLHRLKPDTVPAPCCVPASYNPMVLIQKTDTGVSLQTYDDLLAKDCHCI
# B4: (SEPATSGSETPG)2-MIC-1-Δ1-3 (ligand)
# chain: B3 chain with T13S, S14E, T15P, E16A, P17T, E19G, G20S, S21E, A22T
# B5: (SEPATSGSETPG)2-MIC-1-Δ1-3(M57E) (ligand)
# chain: B3 chain with T13S, S14E, T15P, E16A, P17T, E19G, G20S, S21E, A22T, M78E
# B6: (SEPATSGSETPG)2-MIC-1-Δ1-3(M57L) (ligand)
# chain: B3 chain with T13S, S14E, T15P, E16A, P17T, E19G, G20S, S21E, A22T, M78L
# B7: MIC-1(R2A, N3E, A81E) (ligand)
# chain: AAEGDHCPLGPGRCCRLHTVRASLEDLGWADWVLSPREVQVTMCIGACPSQFRAANMHAQIKTSLHRLKPDTVPAPCCVPESYNPMVLIQKTDTGVSLQTYDDLLAKDCHCI
# B8: A(GPEQGQEP)3-MIC-1-Δ1-3 (ligand)
# chain: AGPEQGQEPGPEQGQEPGPEQGQEPGDHCPLGPGRCCRLHTVRASLEDLGWADWVLSPREVQVTMCIGACPSQFRAANMHAQIKTSLHRLKPDTVPAPCCVPASYNPMVLIQKTDTGVSLQTYDDLLAKDCHCI
# B9: SEPATSGSETPGTSESATPESGPGTSTEPS-MIC-1-Δ1-3 (ligand)
# chain: SEPATSGSETPGTSESATPESGPGTSTEPSGDHCPLGPGRCCRLHTVRASLEDLGWADWVLSPREVQVTMCIGACPSQFRAANMHAQIKTSLHRLKPDTVPAPCCVPASYNPMVLIQKTDTGVSLQTYDDLLAKDCHCI
# B10: SEPATSGSETPGTSESATPESGPG TSTEPSEG-MIC-1-Δ1-3 (ligand)
# chain: SEPATSGSETPGTSESATPESGPGTSTEPSEGGDHCPLGPGRCCRLHTVRASLEDLGWADWVLSPREVQVTMCIGACPSQFRAANMHAQIKTSLHRLKPDTVPAPCCVPASYNPMVLIQKTDTGVSLQTYDDLLAKDCHCI
# B11: (SEPATSGSETPG)2-MIC-1-Δ1-3(M86L) (ligand)
# chain: B3 chain with T13S, S14E, T15P, E16A, P17T, E19G, G20S, S21E, A22T, M107L
# B12: (SEPATSGSETPG)2-MIC-1-Δ1-3(M57L, M86L) (ligand)
# chain: SEPATSGSETPGSEPATSGSETPGGDHCPLGPGRCCRLHTVRASLEDLGWADWVLSPREVQVTMCIGACPSQFRAANLHAQIKTSLHRLKPDTVPAPCCVPASYNPLVLIQKTDTGVSLQTYDDLLAKDCHCI
# Target: human MIC-1 receptor (hGFRAL, GDNF family receptor alpha like) (human) (UniProt Q6UXV0)
# Assay: cell-based or functional assay
row,pERK EC50 (nM),Molecule
1,3.6 nM,HSA-GGSSSGS (SEQ ID NO: 152)-MIC-1 (SEQ ID NO: 1) (from UniProt Q99988 197-308) (ligand)

# Target: T1, human MIC-1 receptor (hGFRAL, GDNF …)
# Assay: cell-based or functional assay
pERK EC50 (nM),pERK Emax (%),Molecule
0.5 nM,100%,B1
0.5 nM,100%,B2
0.7 nM,100%,B3
0.4 nM,100%,B4
0.6 nM,60%,B5
0.6 nM,100%,B6
0.3 nM,100%,B7
0.8 nM,100%,B8
0.4 nM,100%,B9
0.4 nM,100%,B10
0.4 nM,100%,B11
0.4 nM,100%,B12
